According to a protein production outcome set (Wang et al. 2014):

Assay: label from the status in PepcDB records

Row | Sequence | protein production
1 | MLFELVILFVILFLFLGYPISKAWDSFQSKKENSSSILKFEPQEILSICLSYFIFGLGIMWNANDVRGGIPLHKFEKNGMMSDQYASLAHDHIAIVVLLVILGAVSYWRLTKGLTKLSPIFYIFYSTLMIVNIVYTFIYITHTGFAFYTELGGLRYIPVFCIQVGMLAFSLLFIAKLRNTLDYFIQSQNEKDYTQSNRIILLLYRISFGYQKMATVWMISLFPVLLIIQFILILFGQKPDSFIRVFMETSSFNYSKIPAPSPQIVSGDGHYLCTVSVKGHKNIVKPLRAGIRHGERITVNRQLLIANAFENVIEERVPKCHKVIRNFYDKYGYPISKHINTKWSADFVYILMKPLEWFFLFVLYTVDKNPENRIHIQYSELRK | failed
2 | MLFLDSVAMKEKPEGREEYPFSVPAMRHLERLEFKTPITFFAGNNGSGKSTLLEGLAAGMTAYAIGNHGDVKGDLYLQHAETVAKAFYFARKKYPKIRMFLRAEDVLGYIRRQNENALDDFRWEREKALKKGEDFPEETPEIFRGIVRNNSLDRRSHGEGFLDIMHRRLHGAGLYFLDEPESPLSPQKQLELAAIIRQAADSGGQLIIATHSPVLLAIPEATIYYFDEDGITERLYDELENIAFLRRFLDRPSKYLDDLEHHHHHH | not failed
3 | MLFPLILQRPMLSTPTLPRKTFAFLLGGVLLVGLVACGSSTPMAPASSASSALESAAADSLLRQVKTQIREATDEGSLDSLKQARAWAKQATGGDRAALAHYYAALADYRMSNRLPEEDEARRGRVIEDAIGHLKRATEINGTMADAWALLSGYYGQMMGMNPMQGMSLGPKANEAMKRAKEHGPNNPRVWIIDGTSDFYTPGMFGGDKEKALTKFEKAARLAEQGSPDDPLMPGWGHAEAHAWVGVAHMEAERYDPARTAFEAALDLNPDYGWVRSVLLPRLEQQAG | failed
4 | MLFQDDKGVGVAIYRRRFTVLGCASSPGVPRINGDWGACDPQNPRNRRTRAAFMVEQIGPDGGKTTVVIDTGPDFREQMIAAKVQAVDAVLYTHAHADHLHGIDDLRIYFALQKSRIPIWADPVTMARIRDGFAYCLETPAGSNYPPIVRPQLIADINDPVIIDGAGGPIPFKVHMQQHGDVHSLGFRIGDVAYCTDVSDFPAESLPKLTGLDVLVIDALQYRYHPSHLSLEQALGWIEALAPKRAILTHMHIPLDYDTVMRETPDHVEPAYDQMRFEVEIEAP | failed
5 | MLGGTAPKIAKAYQKTLTTNLNDVKNRLKDVTFKPKVLHFVNATNLNQVDGTGTIVNEWIKAAGGQNALKQKGNMISVTTETLAKSDPDVIIVGSATTAEARAALKKNAVLSKLTAVKKNRVYGNPQGTFPWDRYSAEEALQVLWAAKKLHPDQFQLEHHHHHH | not failed
6 | MLGGVIVVKKAIAALGIGAVAVSVSSINASALEKGTVTASALNIRSGPSSDCDKVAKLYKGKTVEILEKSNGWYKVRVSSSVVGWGSAKYISTSGSSEGTSSQNNSTSSGTTISGNGKVNVSSRLNVRSGAGTNYSLVGKANNGDVVKLLEQSNGWYKIKLSNGVTGWASSQYISKTSEDVGTNNSSNSNSTNNSDKKPSSEESIEGKNGKVTSAVSLNVRSGPGTSYSIIGKLNGGDVVELKAKSNGWYKVKLSSGTIGWVSASYISETNEDTKEKPNSSSNQNSQSNSNSKPSFTGNSDKSTAKGSTIVDFAYTLIGIPYQWGASGPDKFDCSGFTQYVFKHSVGVSIPRVSREQANFGSAISMGNYAPGDLVYFDTDGDGTTNHVGIYVGNSKFIHCSGTQTNPNKVKVDNLTSSYWSKVLLGARRFV | failed
7 | MLGKSQKDDHKTTFNKHKKTFSIIVAIKDESKQVIESLVENLKRINYERYEVIIVSDDDESKFREYLEIKFPENFRLIRRESNSGGKAGALNFASRISKGDYLVFMDADARVNEDFLQRLNNKDYVACSLKIIIYDTSTSIQSYYAEFTEKVMDMMFKGRSKLGLPIFPNGSAFSIRRDTLLSIGGWKENAIAEDLELGIRMYLNDLKNLFYDDVVVFLKSPYTLMDLYNQIQRWSYGSSQLLKSSLKLLKKGIKGFEGLLYSQQWVIYPLFFTVLGVYGILTPVFNITQTYLLLLILIYGISVVFYSQVLNQKRVDIKILKTILDASITGYLKGLFGLKYKWRVTPKILDKGGRLIEDNNIPLISIPFYLISFFDASMGFVLSSIVILLVALIESF | failed
8 | MLGYLLLYMIFGGILLAYGSDWFIEGSTRVAKHFNVSNFVIGATIVAFGTSLPEIVTSSGAALSGSPGLAVGNAIGSCIANIGIILGISVLMYPLIIKKRAIIKNGNIYLIATILLVILGYNGFSRFDGLILFLFMIIYVIYTIKTSESDEEEIISDITVKKASIFIVVGLLAVILGSDLFIGGAKGIAEYFNVPESIIGFSLVAFGTSLPELASSVAAAKRKLGSIVLGNVIGSNIANTCVALSFSAMIVDIPKYNVELMVNTIMALLIIFTMNREKIKKMLNFKNFRTDYFSKIDRIDGISYILIYLIFLAYLLGYIF | failed
9 | MLHGFLRLAAGAGRSLAVPAILLALGAPAQAGSLLEDCANDKLTPPNRIVACTNVLEDKAASASDQAVAYFNRANALDRNGEFDRAIADYDKAIAFNPKDAEAFNNRGLIWGHKKDFDRALADYDKAIELNPQIAIAYANRGLIWNDIKHDYVKAIADFDKAIRLDPENNGLYNLRGNAYLRKGDYDQAITSYSQAIFLDSQDPNQYFNLGLAWTTKGNLERAIADYSQAISLDANHAEAYRWRADAWVKRGDTDQALSDYTEAIRLDPGDAETFRNRARIWERKRDYDRAIADYDQAIAFAPNDAVAYNGRGWMWSLKHETDRAIVDYVKATAFDPNYVLAYDNLGLAWWDKGDLDRAISAFDQAVIVDPKYAPAYNDRGLARMDKNQYDLAIADYNMAILIDAGFVSAYRNRGNAWNRKGQFDYAIADFDQAIDHDPDDADAYVGRGRSRIYKADYTKAIADLDQAIRIGPKSARAHDTRGLAMVYKADYAGALADYDEAIRLSPKNASAYRNRGIASFYFGPPAKAQADFEQAAAIKPGDSYHAIWLDLARRRNGQPSILVDAKLDMTRWPAAVVRLLLGQQTPEATLLAADNPDATKKSEQLCEANFYVAEFQRLQHHDEEALRLYRLALGGCPRDFIEYTAATSALRVMGKAP | failed
10 | MLHGKGCKKDVKIIVWSGLLFLCLAARALATGVVGYLPMSDGEYAQKRALKPLLTLPYSVSPDQTWHFRQVGVSGVTLLPEPKKDNEWRISGKDRAGNSWVVPVGRLINLAGNAQFYRADLDRNGIQDLVIWLGNPGLGLAPSAQYIIFTFLKNGRPCVFEPWGFYTATDTGVDDLLDLQGNGRTQLLDMQFDSGYWITNLYQVKDARWQRVHGWFGRLSYPALTRFNHYPGRKLIIKPIAGRNPQTDDLSLTQRCLIRGNVLPGVNQD | failed
11 | MLHHVEINVDHLEESIAFWDWLLGELGYEDYQSWSRGKSYKHGKTYLVFVQTEDRFQTPTFHRKRTGLNHLAFHAASREKVDELTQKLKERGDPILYEDRHPFAGGPNHYAVFCEDPNRIKVEIVAP | not failed
12 | MLHTEKVEYVNQAHEDITGIARDKSIGTNLRDLTFFRQHNALAEQTLAKIFRGDQAKGEVQFSRTDGSRYWLKYIVSQFITDRGNHYALVSGEENSDEHLEHHHHHH | failed
13 | MLHVHILSWVLAIILFIATYLNYSKTQGASPYYKPLHMALRLFMLLTLISGFWELIEEFMAASNGEGGNHMLLTLKMLCGLAVIAFMEISIAKRKKQQTSHKFFWITIILIIITMAIGVILPWGPISKIFGIS | failed
14 | MLIFGFIGLFFLNIFSLHAQGIVTNKDAQEEFKWALNSYNNGIYDDALLSFKKILSFDPNNLDYHFWTGNVYYRLGYVEEALMEWRNLKDQGYKVPYLRHLISTIEQRRGIFSNYELNFKKLVKVASLDNSIYKRPHGYQITSLRADKYGGYYAANFVGNEILYFDVNNNVNALVKDGFSYLKSPYDVIEANNLLYVTLYSSDEIGVYDKVLGVKRKSIGNKGTKDGELLAPQYMAIDKRNYIYVSEWGNKRVSKFGLEGDFILHFGSRTSGYKGLLGPTGVTYLNENIYVADSLRNTIEVFDTSGNHLYSVFTSIEGIEGLSSDFVGNNVIVSSKDGVYKYSIAKKTITKILKADKMNSKISSSILDANNQMIVSDFNNAKVSVYKSDASLYDSLNVDVRRIIRLGGPKIYVELNVSSKSGLPVVGLKSENFSISNENYYIVNPKVAYNVNASKDINIAVVFDKSSYMKKYDTDQIVGLNALMELSKNKNFSFINATSVPIIDNIESLTNSIRNTSSLGPYSTDAVKTDVSLKLAGSGLMSKSSRRAVVYFSGGILNRKAFEKYSLDTIVSYYKNNDIRFYLILFGNDPINSKLQYLVNETGGAVIPFSSYEGVSKVYDLILEQKTGTYLLEYYYPGPQEPNKYFNLSVEANINQQTGRGEFAYFINLEHHHHHH | failed
